T1: alpha-s1 casein from Bos taurus
T1 chain: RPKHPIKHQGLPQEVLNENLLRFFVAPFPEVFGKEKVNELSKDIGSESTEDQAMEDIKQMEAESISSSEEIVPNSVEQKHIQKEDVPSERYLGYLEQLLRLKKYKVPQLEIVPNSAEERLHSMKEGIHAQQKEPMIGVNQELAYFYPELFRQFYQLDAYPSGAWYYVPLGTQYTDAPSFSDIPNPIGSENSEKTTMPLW

B1: bovine chymosin B variant #7 (K221V) (protein)
chain: GEVASVPLTNYLDSQYFGKIYLGTPPQEFTVLFDTGSSDFWVPSIYCKSNACKNHQRFDPRKSSTFQNLGKPLSIHYGTGSMQGILGYDTVTVSNIVDIQQTVGLSTQEPGDVFTYAEFDGILGMAYPSLASEYSIPVFDNMMNRHLVAQDLFSVYMDRNGQESMLTLGAIDPSYYTGSLHWVPVTVQQYWQFTVDSVTISGVVVACEGGCQAILDTGTSVLVGPSSDILNIQQAIGATQNQYGEFDIDCDNLSYMPTVVFEINGKMYPLTPSAYTSQDQGFCTSGFQSENHSQKWILGDVFIREYYSVFDRANNLVGLAKAI
B2: bovine chymosin B variant #62 (V223Q) (protein)
chain: GEVASVPLTNYLDSQYFGKIYLGTPPQEFTVLFDTGSSDFWVPSIYCKSNACKNHQRFDPRKSSTFQNLGKPLSIHYGTGSMQGILGYDTVTVSNIVDIQQTVGLSTQEPGDVFTYAEFDGILGMAYPSLASEYSIPVFDNMMNRHLVAQDLFSVYMDRNGQESMLTLGAIDPSYYTGSLHWVPVTVQQYWQFTVDSVTISGVVVACEGGCQAILDTGTSKLQGPSSDILNIQQAIGATQNQYGEFDIDCDNLSYMPTVVFEINGKMYPLTPSAYTSQDQGFCTSGFQSENHSQKWILGDVFIREYYSVFDRANNLVGLAKAI
B3: bovine chymosin B variant #110 (A51V, K221V, N50D, N144H, N160D, S201D, Q242E, M267E, Q280E) (protein)
chain: GEVASVPLTNYLDSQYFGKIYLGTPPQEFTVLFDTGSSDFWVPSIYCKSDVCKNHQRFDPRKSSTFQNLGKPLSIHYGTGSMQGILGYDTVTVSNIVDIQQTVGLSTQEPGDVFTYAEFDGILGMAYPSLASEYSIPVFDNMMHRHLVAQDLFSVYMDRDGQESMLTLGAIDPSYYTGSLHWVPVTVQQYWQFTVDSVTIDGVVVACEGGCQAILDTGTSVLVGPSSDILNIQQAIGATQNEYGEFDIDCDNLSYMPTVVFEINGKEYPLTPSAYTSQDEGFCTSGFQSENHSQKWILGDVFIREYYSVFDRANNLVGLAKAI
B4: bovine chymosin B variant #103 (A51I, K221T) (protein)
chain: GEVASVPLTNYLDSQYFGKIYLGTPPQEFTVLFDTGSSDFWVPSIYCKSNICKNHQRFDPRKSSTFQNLGKPLSIHYGTGSMQGILGYDTVTVSNIVDIQQTVGLSTQEPGDVFTYAEFDGILGMAYPSLASEYSIPVFDNMMNRHLVAQDLFSVYMDRNGQESMLTLGAIDPSYYTGSLHWVPVTVQQYWQFTVDSVTISGVVVACEGGCQAILDTGTSTLVGPSSDILNIQQAIGATQNQYGEFDIDCDNLSYMPTVVFEINGKMYPLTPSAYTSQDQGFCTSGFQSENHSQKWILGDVFIREYYSVFDRANNLVGLAKAI
B5: bovine chymosin B variant #74 (A51V, K221M) (protein)
chain: GEVASVPLTNYLDSQYFGKIYLGTPPQEFTVLFDTGSSDFWVPSIYCKSNVCKNHQRFDPRKSSTFQNLGKPLSIHYGTGSMQGILGYDTVTVSNIVDIQQTVGLSTQEPGDVFTYAEFDGILGMAYPSLASEYSIPVFDNMMNRHLVAQDLFSVYMDRNGQESMLTLGAIDPSYYTGSLHWVPVTVQQYWQFTVDSVTISGVVVACEGGCQAILDTGTSMLVGPSSDILNIQQAIGATQNQYGEFDIDCDNLSYMPTVVFEINGKMYPLTPSAYTSQDQGFCTSGFQSENHSQKWILGDVFIREYYSVFDRANNLVGLAKAI

Target: T1, alpha-s1 casein from Bos taurus

B1 was tested, and the “hydrolysis of the first cut in alpha-s1-casein” value (shortened to “hydrolysis … in alpha-s1-casein”) was “show a clear hydrolysis of the first cut in alpha-s1-casein, leading to a rapid formation of fragment alpha-s1-I casein”.
In the case of B3, the “hydrolysis … in alpha-s1-casein” value is reported as “show a clear hydrolysis of the first cut in alpha-s1-casein, leading to a rapid formation of fragment alpha-s1-I casein”.
In the case of B4, the “hydrolysis … in alpha-s1-casein” value is reported as “show a clear hydrolysis of the first cut in alpha-s1-casein, leading to a rapid formation of fragment alpha-s1-I casein”.
B5 was tested, and the “hydrolysis … in alpha-s1-casein” value was “show a clear hydrolysis of the first cut in alpha-s1-casein, leading to a rapid formation of fragment alpha-s1-I casein”.

B1 and B2 are the same in small, 6 hours, 11° C.: 0 Volume for the first, 0 Volume for the second.

Work on B5 yielded a small, 6 hours, 11° C. of 0 Volume.

First: B1
Second: B2
The small, 24 hours, 11° C. of the first is higher: 1.05e+07 Volume for the first, 4.1e+06 Volume for the second.

Work on B5 yielded a small, 24 hours, 11° C. of 0 Volume.

Going from B1 to B2, the αs1-I CN, 6 hours, 11° C. falls from 2.28e+07 Volume to 1.29e+07 Volume.

B5 showed a αs1-I CN, 6 hours, 11° C. of 1.98e+07 Volume.

First: B1
Second: B2
The αs1-I CN, 24 hours, 11° C. of the first is lower: 1.82e+07 Volume for the first, 1.99e+07 Volume for the second.

B5 showed a αs1-I CN, 24 hours, 11° C. of 2.47e+07 Volume.

Compared with B1, B5 is lower in αs1-I CN/αs1 CN, 6 hours, 11° C.: 2.1 for the first, 0.9 for the second.

First: B1
Second: B5
The αs1-I CN/αs1 CN, 24 hours, 11° C. of the first is higher: 6.4 for the first, 3.9 for the second.

Compared with B1, B2 is higher in αs1 CN, 6 hours, 11° C.: 1.07e+07 Volume for the first, 2.67e+07 Volume for the second.

Protein B5 has a αs1 CN, 6 hours, 11° C. of 2.09e+07 Volume.

Going from B1 to B2, the αs1 CN, 24 hours, 11° C. rises from 2.8e+06 Volume to 1.34e+07 Volume.

Protein B5 has a αs1 CN, 24 hours, 11° C. of 6.3e+06 Volume.

With B2 the “hydrolysis of the first cut in alpha s1-casein” value was “variant 62 shows slow hydrolysis of the first cut in alpha s1-casein, and therefore slow accumulation of alpha s1-I casein”.

Compared with B3, B4 is lower in small, 16 hours, 30° C.: 1.4e+06 Volume for the first, 1.3e+06 Volume for the second.

Work on B5 yielded a small, 16 hours, 30° C. of 5.1e+06 Volume.

First: B3
Second: B4
The αs1-I CN, 16 hours, 30° C. of the first is higher: 2.26e+07 Volume for the first, 2.03e+07 Volume for the second.

With B5 the αs1-I CN, 16 hours, 30° C. was 1.86e+07 Volume.

Compared with B3, B4 is lower in αs1 CN, 16 hours, 30° C.: 3e+06 Volume for the first, 1.4e+06 Volume for the second.

In the case of B5, the αs1 CN, 16 hours, 30° C. is reported as 1.8e+06 Volume.
